In US20250346878, “EDITING OF DOUBLE-STRANDED DNA WITH RELAXED PAM REQUIREMENT” (WUHAN UNIVERSITY, published 2025):
Residue numbers refer to the chain shown, from its start.

Tests used:
dAtCas9 [1] = target: T1, dAtCas9 (Alicyclobacillus tengchongensis, D8A,H617A,N640A); assay: EMSA; SD 10.9; buffer16 with 10 mM Mg2+, 55C; PAM CTAA; settings: tags: 6xHis; label: 5' Cy5
T1 chain: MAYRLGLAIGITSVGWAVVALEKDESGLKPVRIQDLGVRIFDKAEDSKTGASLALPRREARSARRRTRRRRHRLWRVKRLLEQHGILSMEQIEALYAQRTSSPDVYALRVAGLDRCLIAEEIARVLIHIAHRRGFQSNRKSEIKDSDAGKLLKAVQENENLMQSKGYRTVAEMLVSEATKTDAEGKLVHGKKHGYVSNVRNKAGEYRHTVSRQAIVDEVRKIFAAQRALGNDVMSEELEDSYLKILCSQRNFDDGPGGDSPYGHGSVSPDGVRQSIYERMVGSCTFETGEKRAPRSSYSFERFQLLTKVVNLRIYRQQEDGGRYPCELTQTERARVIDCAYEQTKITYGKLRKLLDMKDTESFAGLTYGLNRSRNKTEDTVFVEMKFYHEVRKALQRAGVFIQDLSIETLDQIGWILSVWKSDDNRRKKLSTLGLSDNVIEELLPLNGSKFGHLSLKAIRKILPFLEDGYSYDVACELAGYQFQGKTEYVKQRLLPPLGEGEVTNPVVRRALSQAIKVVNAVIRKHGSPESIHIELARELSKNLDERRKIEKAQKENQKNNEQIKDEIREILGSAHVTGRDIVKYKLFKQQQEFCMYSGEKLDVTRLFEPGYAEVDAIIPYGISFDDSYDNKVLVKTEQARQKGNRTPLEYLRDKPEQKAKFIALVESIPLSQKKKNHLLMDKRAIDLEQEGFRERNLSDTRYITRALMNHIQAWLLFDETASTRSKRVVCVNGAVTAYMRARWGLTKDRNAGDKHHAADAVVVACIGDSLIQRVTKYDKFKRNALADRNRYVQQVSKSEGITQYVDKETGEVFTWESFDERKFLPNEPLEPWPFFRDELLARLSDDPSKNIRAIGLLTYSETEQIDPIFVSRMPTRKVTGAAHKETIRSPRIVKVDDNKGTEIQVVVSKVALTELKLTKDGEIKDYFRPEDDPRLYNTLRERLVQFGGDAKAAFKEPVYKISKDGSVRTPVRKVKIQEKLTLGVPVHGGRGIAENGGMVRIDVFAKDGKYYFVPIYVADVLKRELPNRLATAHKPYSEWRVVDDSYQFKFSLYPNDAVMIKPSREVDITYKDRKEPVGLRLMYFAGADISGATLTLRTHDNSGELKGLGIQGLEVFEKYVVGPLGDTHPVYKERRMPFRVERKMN
Procedure: (§1) A. Schematic diagram of AtCas9 domain structure showing RuvC and HNH nuclease domain mutation site. BH, arginine-rich bridge helix; REC, recognition lobe; L1, linker 1; L2, linker 2; WED, Wedge domain; TOPO, Topoisomerase-homology domain; CTD, C-terminal domain; HNH, HNH domain; D, Aspartic acid; H, Histidine; N, Asparagine; A, Alanine. B. (left) Electrophoretic mobility shift assay (EMSA) were carried out by incubating AtCas9 RNP with 25 nM Cy5-labeled oligonucleotides (50 bp) in buffer16 without Mg²⁺. […] (right) Catalytically dead AtCas9 (dAtCas9, D8A H617A N640A) were used for EMSA assay in the presence of Mg²⁺ C. […] The bulge substrate details are illustrated in FIG. 10B. […] MUT PAM TATA and WT PAM CTAA was used. D. Higher binding affinity of AtCas9 RNPs towards negative supercoiled dsDNA than linear dsDNA. 1 nM cy5-labeled negative supercoil plasmid or NcoI-linearized plasmid containing PAM (CTAA) or mutant PAM (TGAC) motif were incubated with dAtCas9 RNP complex at indicated dosage. ProK, Proteinase K.
(§2) dAtCas9 and sgRNA were mixed at 1:2 molar ratio in 1×buffer16. After incubation at room temperature for 10 minutes, the RNP mixture were diluted to various concentration ranging from […] to 0.6 nM and 4 nM cy5-labeled oligonucleotides was added. Binding reactions were carried out at 55° C. for 30 minutes. Samples were resolved on 4% native TBE-PAGE for oligonucleotides. […]

dAtCas9-D1089A [2] = target: T2, dAtCas9-D1089A (Alicyclobacillus tengchongensis, D8A,H617A,N640A,D1089A); assay: EMSA; SD 15.39; PAM CTAA; settings: tags: 6xHis; label: 5' Cy5
T2 chain: T1 chain with D1089A
Description: (§3) A. Schematic representation of AtCas9 domain structure showing the positions of PAM-interacting (PI) mutations. BH, arginine-rich bridge helix; REC, recognition lobe; L1, L1 linker; L2, L2 linker; WED, Wedge domain; TOPO, Topoisomerase-homology domain; CTD, C-terminal domain; HNH, HNH domain; RuvC, RuvC domain; D, Aspartic acid; I, Isoleucine; S, Serine; G, Glycine; A, Alanine. B. Negative supercoil and linearized DNA of different PAM were cleaved by WT AtCas9 and two PI mutants, m4 and m5. Each PAM variant has at least two distinct spacer sequences for cleavage assays. Use Image Lab software to analyzed the percentage of cutting products and take the average value of each PAM variant for graphing. m4, D1089A; m5, D1089A S1091A G1092A. C. Sequence logo for the AtCas9 PI domain mutant m4 (D1089A) PAM as determined by linearized PAM library substrates cleavage assay. D. EMSA assay were performed with 5′ cy5-labeled oligonucleotides carrying WT PAM (CTAA, left) or MUT PAM (TATA, right), and dAtCas9 or dAtCas9-D1089A RNP complex titrating from 1.2 nM to 2.4 μM. […] E. SpCas9 RNPs hardly bind to mut PAM (GTC) dsDNA compared with wt PAM (AGG) dsDNA. KD±SD for SpCas9 to WT PAM dsDNA, 300±10.57 nM; KD±SD for SpCas9 to MUT PAM dsDNA, ˜2.495e+18 nM.
(§4) dAtCas9 and sgRNA were mixed at 1:2 molar ratio in 1×buffer16. […]

dAtCas9 [3] = target: T1, dAtCas9; assay: EMSA; SD 12.05; second measurement, PAM CTAA; guide 21a sgRNA-At; settings: tags: 6xHis; label: 5' Cy5
Description: as §3, §4

dAtCas9 [4] = target: T1, dAtCas9; assay: EMSA; SD 4.5; mutated PAM TATA; buffer16, 55C; settings: tags: 6xHis; label: 5' Cy5
Procedure: as §1, §2

dAtCas9-D1089A [5] = target: T2, dAtCas9-D1089A; assay: EMSA; SD 13.6; PAM TATA; settings: tags: 6xHis; label: 5' Cy5
Description: as §3, §4

dAtCas9 [6] = target: T1, dAtCas9; assay: EMSA; SD 7.1; second measurement, mutated PAM TATA; settings: tags: 6xHis; label: 5' Cy5
Description: as §3, §4

dAtCas9 [7] = target: T1, dAtCas9; assay: EMSA; PAM CTAA; settings: tags: 6xHis; label: Cy5; NcoI-linearized plasmid
Procedure: as §1, §2

dAtCas9 [8] = target: T1, dAtCas9; assay: EMSA; SD 12.2; mutated PAM TATA with 1-2 bulge; settings: tags: 6xHis; label: 5' Cy5; 2-base bulge at PAM-proximal positions 1-2
Procedure: as §1, §2

B1: 21a sgRNA-At full length ; 50 bp 21a WT PAM (CTAA) (ssRNA ; dsDNA)
RNA: AAAUGCCUUCGAUUUUACCCCAACGAAUAAGUCAUAGUUCCCUCACAAGCCUCGAUGUGGUAUGAUGAAAAUCAUACCACAUCAAGGCUUGCGAGGUUGCUAUGAUAAGGCAACAGGCCGCAAAGCACUGACCCGCAUUCCAAUGAAUGCGGGUCAUCUACUUUUU
DNA 1: AAATGCCTTCGATTTTACCCCAACGAATAACAGGCTAAAATATGGACCTG
DNA 2: CAGGTCCATATTTTAGCCTGTTATTCGTTGGGGTAAAATCGAAGGCATTT
Kd (dAtCas9 [1]): 22.4 nM
Kd (dAtCas9-D1089A [2]): 44.4 nM
Kd (dAtCas9 [3]): 26.2 nM

B2: 21a sgRNA-At full length ; 50 bp 21a mutated PAM (TATA), 0 bulge (ssRNA ; dsDNA)
RNA: B1 RNA
DNA 1: AAATGCCTTCGATTTTACCCCAACGAATAAGTCATATAAATATGGACCTG
DNA 2: CAGGTCCATATTTATATGACTTATTCGTTGGGGTAAAATCGAAGGCATTT
Kd (dAtCas9 [4]): 248 nM
Kd (dAtCas9-D1089A [5]): 27.1 nM
Kd (dAtCas9 [6]): 109 nM

B3: 27m sgRNA-At ; 27m WT PAM (CTAA) mini plasmid, linear (ssRNA ; dsDNA)
RNA: GAAGAUCCUUUGAUCUUUUCUACGGGUCAUAGUUCCCUCACAAGCCUCGAUGUGGUAUGAUGAAAAUCAUACCACAUCAAGGCUUGCGAGGUUGCUAUGAUAAGGCAACAGGCCGCAAAGCACUGACCCGCAUUCCAAUGAAUGCGGGUCAUCUACUUUUU
DNA 1: GAAGATCCTTTGATCTTTTCTACGGGGTCCTAA
DNA 2: TTAGGACCCCGTAGAAAAGATCAAAGGATCTTC
binding result (dAtCas9 [7]): binds

B4: 21a sgRNA-At full length ; 50 bp 21a mutated PAM, 1-2 bulge (ssRNA ; dsDNA)
RNA: B1 RNA
DNA 1: B2 DNA 1 with A29T, A30T
DNA 2: B2 DNA 2
Kd (dAtCas9 [8]): 29.5 nM
